Test results taken from US20140315822A1.

Tests used:
[1] = target: T1, PDZ domain of the human MAST2 protein (human), Q6P0Q8
T1 chain: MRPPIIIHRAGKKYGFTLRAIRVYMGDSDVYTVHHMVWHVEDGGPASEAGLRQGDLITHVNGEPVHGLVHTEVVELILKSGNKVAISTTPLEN

[2] = target: T1, PDZ domain of the human MAST2 protein …; assay: ITC, 298 K, MAST2-PDZ titrated with peptide

B1: 454 (Neurovita 3) (peptide)
peptide: SWEVHGQQTRL
modifications: not checked
[1]
  gain of affinity as compared to Neurovita1: 20 fold
[2]
  TΔS (entropy): 1110
  n (stoechiometry): 1.01
  ΔH (enthalpy): -8720
